Results published in patent US20230374148A1, “BINDING MOLECULES THAT MULTIMERISE CD45” (UCB BIOPHARMA SRL, priority 2020, published 2023).
Values joined by “and” are separate entries in the source; they are usually repeats but may differ in a detail not shown here. Equal entries are not always repeated.

B1: 4133-6294 BYbe: anti-CD45 BYbe (Fab-scFv): 4133 Fab HC-G4S linker-6294 scFv heavy chain paired with 4133 light chain (antibody)
heavy: QEQLVESGGGLVQPEGSLTLTCTASGFSFSGNYYMCWVRQAPGKGLEWIGCLYTGSSGSTYYASWAKGRFTISKTSSTTVTLQMTSLTAADTATYFCARDLGYEIDGYGGLWGQGTLVTVSSGQPKAPSVFPLAPCCGDTPSSTVTLGCLVKGYLPEPVTVTWNSGTLTNGVRTFPSVRQSSGLYSLSSVVSVTSSSQPVTCNVAHPATNTKVDKTVAPSTCSKPGGGGSGGGGSEVQLVESGAELARPGASVKMSCKASGYTFTSYTMHWVKQRPGQCLEWIGYINPSSGYTEYNQKFKDKTTLTADKSSSTAYLQLSSLTSEDSAVYYCARVGDGFYPSWLAYWGQGTLVTVSSGGGGSGGGGSGGGGSGGGGSDIQMTQSPKFLLVSAGDRVTITCKASQSVRNDVAWYQQKPGQSPKLLIFYASKRYTGVPDRFTGSGYGTDFTFTISTVQAEDLAVYFCQQDYSSPTTFGCGTKLEIK
light: AQVLTQTPSPVSAVVGGTVSISCQASQSVYNNNNLSWYQQKPGQPPKLLIYDASKLASGVPSRFKGSGSGTQFTLTISGVQCDDAATYYCLGGYYSSGWYFAFGGGTKVVVKRTPVAPTVLIFPPAADQVATGTVTIVCVANKYFPDVTVTWEVDGTTQTTGIENSKTPQNSADCTYNLSSTLTLTSTQYNSHKEYTCKVTQGTTSVVQSFNRGDC

Columns and labels:
Type in all cases: cell-based
Dakiki = assay: Apoptosis of cell lines: Dakiki; details: 21 hrs
Source text: (§1) The following cell lines representing various leukaemia's and lymphoma's, as classified by ATCC (www.atcc.org/), were used: Jurkat—acute T-cell leukaemia; CCRF-SB—B-cell acute lymphoblastic leukaemia; MC116—B-cell undifferentiated lymphoma; Raji, Ramos—Burkitt lymphoma (rare form of B-cell non-Hodgkin lymphoma); SU-DHL-4, SU-DHL-5, SU-DHL-8, NU-DUL-1, OCI-Ly3—Diffuse large B-cell lymphoma; THP-1—acute monocytic leukaemia; and Dakiki—B cell nasopharyngeal carcinoma.
(§2) Prior to an assay being performed, 1 vial of each of the above cell lines was thawed in a 37° C. water bath and then added to 20 ml complete media (RPMI 1640+2 mM GlutaMAX+1% Pen/Strep, all previous supplied by Invitrogen, +10% Fetal Bovine Serum (FBS), Sigma Aldrich). Cells were spun (500 g, 5 min, at RT) and re-suspended in 20 ml complete media to wash and spun again. Cells were resuspended in 10 ml complete media and then counted using a ChemoMetec NucleoCounter NC-3000. 6×10^6 cells of each cell line were spun (500 g, 5 min, at RT) and re-suspended in 4.8 ml complete media. 1×10^5 cells in 80 μl were then added to each well of a Corning Costar 96-well, cell culture treated, U-shaped-bottom microplate (cat no. 07-200-95). The plate was rested in a 37° C., 5% CO2 incubator for 2 hrs
(§3) Stocks of 4133-6294 BYbe and NegCtrl BYbe at 2500 nM in complete media were prepared. In a Greiner 96-well non-binding microplate, both reagents were serially diluted in complete media 1 in 5, seven times to produce to form an 8-point dose curve. […] (final well concentrations 500-0.0064 nM) was added to the cells. Each concentration was produced in triplicate. Camptothecin (cat no. C9911-100MG, Sigma Aldrich) and Staurosporine (cat no. 56942-200UL, Sigma Aldrich) were added as positive controls of apoptosis. Both were diluted in complete media and added to the well to produce a final concentration of 5 μM. Additional positive controls included anti-thymocyte globulin (ATG, indicated by FDA for use in conditioning regimens), Rituximab (anti-CD20, indicated by FDA for Non-Hodgkin Lymphoma and Chronic Lymphocytic Leukaemia) and Campath (anti-CD52, indicated by FDA for B-cell Chronic Lymphocytic Leukaemia). Anti-thymocyte globulin, Rituximab and Campath were added to the wells to produce final concentrations of 200 μg/ml, 500 nM and 200 μg/ml, respectively. […]
(§4) Following the incubation, the plates were spun at 500 g, 5 min, RT, the buffer was aspirated with a BioTek ELx405 microplate washer, and the cells were re-suspended in FACS buffer (PBS+1% bovine serum albumin (BSA)+0.1% NaN3+2 mM EDTA, Sigma Aldrich) to wash and then re-spun and buffer was aspirated to leave the cells in 20 μl residual media. […] Cells were analysed using the Bio-Rad ZE5 Cell Analyzer. […]

OCI-Ly3 = assay: Apoptosis of cell lines: OCI-Ly3; details: OCI-Ly3, 21 hrs
Source text: as §1, §2, §3, §4

THP-1 = assay: Apoptosis of cell lines: THP-1; details: THP-1, 21 hrs
Source text: as §1, §2, §3, §4

SU-DHL-8 = assay: Apoptosis of cell lines: SU-DHL-8; details: SU-DHL-8, 21 hrs
Source text: as §1, §2, §3, §4

| Molecule | Campath mean (%) cell reduction (Dakiki; 200 μg/ml) | Campath mean (%) cell reduction (OCI-Ly3; 200 μg/ml) | Campath mean (%) cell reduction (THP-1; 200 μg/ml) | Campath mean (%) cell reduction (SU-DHL-8; 200 μg/ml) | Bottom (%) level of % cell reduction (Dakiki) | Top (%) level of % cell reduction (Dakiki) | Bottom (%) level of % cell reduction (OCI-Ly3) | Top (%) level of % cell reduction (OCI-Ly3) | Bottom (%) level of % cell reduction (THP-1) | Top (%) level of % cell reduction (THP-1) | Bottom (%) level of % cell reduction (SU-DHL-8) | Top (%) level of % cell reduction (SU-DHL-8) |
| --- | --- | --- | --- | --- | --- | --- | --- | --- | --- | --- | --- | --- |
| Campath: anti-CD52, clinical grade, indicated by FDA for B-cell Chronic Lymphocytic Leukaemia; positive control [reference compound] | 8.83% | 6.72% | 15.40% | 7.97% | – | – | – | – | – | – | – | – |
| B1 | – | – | – | – | 10.88% | 76.37% | 10.54% | 39.84% and 39.94% | 8.14% | 60.72% | -2.97% | 16.77% |
